# In the nanobody polyreactivity screen of Harvey et al. (2022):
# Experiment: yeast display, Sf9 membrane polyspecificity reagent, FACS + sequencing; frameworks hold sequencing errors
# Method in brief: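 A synthetic nanobody library was expressed on Saccharomyces cerevisiae BJ5465 by galactose induction for 36–48 hours. The library was stained for 1 hour at 4 °C with 10% biotinylated, detergent-solubilized Sf9 membrane reagent and enriched with streptavidin microbeads before FACS. Low and high (top ~1%) gates were set on anti-HA fluorescence for expression and streptavidin fluorescence for reagent binding, and each polyreactivity label reflects the gate of origin.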
row,Sequence,polyreactivity (PSR sort gate)
1,QVQLVESGGGLVQAGGSLRLSCAASGRTFFRNTMGWYRQAPGKERELVATISSSGGSTYYADSVKGRFTISRDNAKNTVYLQMNSLKPEDTAVYYCAAAPSKWYYGYGYWGQGTQVTVSS,high polyreactivity
2,QVQLVESGGGLVQAGGSLRLSCAASGLTFIYYAMGWYRQAPGKEWELVAAISVSGGSTYYADSVKGRFTISRDNAKNTVYLQMNSLKPEDTAVYYCAADWFVHKPRYHSTFDFWGQGTQVTVSS,low polyreactivity
3,QVQLVESGGGIVQAGGSLRLSCAASGRTFIRYTRGWYRQAPGKERELVGSIRYSGASTSYADSVKGRFTISRDNAKNTVYLQMNSLKPEDTAVYYCAARFGRYSHRYYYWGQGTQVTVSS,high polyreactivity
4,QVQLVESGAGLVQAGGRLRLSCAASGRIFIRNAMGWSRQAPGKERELVAAIDSVGSTNYADSVKGRFTISRDNAKNTVYLQLNSLKPEETAVYYCAARGWKYASPYWGYYYWGQGSQVTVSS,low polyreactivity
5,QVQLVESGGGLVQAGGSLRLSCAATGRTFGYSPMGSYRPAPGKERELVAAISRRGGSTYYADSVKGRFIISRDNAKNTVYLQMNSLKPEDTAVYYCAKGHQWGLKGGYDYWGQGTQVTVSS,high polyreactivity
6,QVQLVESGGGLVQAGGSLRLSCAASGSIFGSYAMGWYRQAPGKERELVAAIRSGGGTYYADSVKGRFTISRDNAKNTVYLQMNSLKPEDTAVYYCAAGDGFYFSFYIYDYWGQGTQGTVSS,low polyreactivity
7,QVQLVESGGGIVQAGGSLRLSCAASGFTFEKNAMGWYRQAPGKERELVAAISRGGSTYADSVKGRFRISRDNAKNTVYLQMNSLKPEDTAVYYCAADTVYIFSSAINGEFGYWGQGTQVTVSS,low polyreactivity
8,QDQLVESGGGLVHAGGSLLLSCAACRRLFSQYVMGWYRQAPGKERELVAAISSGGGRTYYADSVKGRFTISRDYAKNTVYLQLNSLKPEDTAVYYCATLRPSAYPQYDSWGQGTQVTVSS,high polyreactivity
9,QVQLVESGGGLVQAGGSLRLSCAASGLTFKFYDMGWYRQAPVKEREFVAGITSSGGTTYYADSVKGRFTISRDNAKNTVYLQMNSLKPEVTAVYYCAAADIDDGPFDSWGQGTQVNVSS,low polyreactivity
10,QVQHVESGGGLVQAGGSLRLSCAASGRIFYSNVMGWYRQAPGKERELVAAISGRTGGTYYADSEKGRFTISRDNAKNTVYLQMNSMKPEDTAVYFCAARVIYYYGSGPYDYWGQGTQVTVSS,low polyreactivity
11,QVQIVESGGGLLQAGGSLPLTCAASGSTFDDNAQGWYRLAPGKERELVAAISYSGGSTYYADSVKGRFTISRDNAKNTVYLQMNSLKPEDPAVYYCAADDLYTDYETWWRRGDYWGQGTQVTVSS,low polyreactivity
12,QVQLVESGGGLVQAGGSLRLSCAASGGIFDRYAMGWYRQAPGKERELVAAITSGGSTNYADSVKGRFTISRDNAKNTVYLQMISLKPEDTAVYYCNADLGILSGVAEGPTFREYDYWGQGTQVTVSS,low polyreactivity
13,QVQLVESGGGLVQAGGSLRLSCAASGRIFVRYAMGWYRQAPGKERELVAAITTTGDSTYADSVKGRFTISRDNAKNTVYLQMNSLKPEDTAVYYCNAAWPESRFLVYHRYDYWGQGTQVTVSS,low polyreactivity
14,QVQLVESGGGLVQAGGSLRLSCAASGIIFHGYAMGWYRQAPGKERELVAAITNSGGRTYYADSVKGRFTISRDNAKNTVYLQMNSLKPEDTAVYYCAADGHKYRMDYWGQGTQVTVSS,low polyreactivity
15,QVQLVESGGGLVQAGGSLRFTCAASGRIFRTNAMGWYRQAHGKEREFVAAISKDGGRTYYADSVKGRFTISRDNAKNTVYLQMNSLKPEDTAVFYCNVLVKHSTTTYSTYDYWGQGSQVTVSS,high polyreactivity
16,QVKLVESGRGLVQAGGSLRVSCAASGRIFQRYVMGWYRQAPGKERELVAAITWSGGSTYADSVKGRFTISRDNAKNTVYLQMNSLKTEDTAVYYCAARVPYNYWGMYYLYDYWGQGTQVTVSS,high polyreactivity
17,QVQLVESGGGLDQAGGSLRLSCAASGSIFRNYAMGWYRQAPGKEREFVAAISGGGGSTYYADSVKGRFTISRDNAKNTVYLQMNSLKPEDTAVYYCARVRYYGALKLYAYDHWGQGTQVTVSS,high polyreactivity
18,KVQLVESGGGLVQAGGSLRLSCAASGSIFWFYAMGWYRQAPGKEREFVATISRSCGSTYYADSVKGRFTISRDNAKNTDYLQMNSLKPEDTAVYYCIARGPRSHRYDYWGQGTQVNVSS,high polyreactivity
19,QVQLVESGGGLVQAGGSLRLSCAASGSIFSRYAMGWYRQAPGTERELVAAITSSGTSTYYADSVKGRFTISRDNAKNTVYLQMNSLKPEDTAVYYCAAAFRQRTSRYDYWGQGTQVTVSS,high polyreactivity
20,QVQLVESGGGLVQAGGSLRLSCAAYGRTFWPNAMGWYRQAPGKERELVAAFSRRSGSTYYADSVKGRFTISRDNAKNTVYLQMNSLKPEDTAVYYCAAKYRAHGNHSWGQGTQVTVSS,high polyreactivity
21,QVHLVESGGGLLLAGGSLRLTCAASGSTFYSYDKGWYRQAPGKERELVAAISWNGGSTYYEDSVKGRFTISRDNAKNTVYLPMNSLKPEDTAVYYCAALRYVHGYDYWGQGTQVSVSS,high polyreactivity
22,QVQLVESGGGLVQAGGSLRLSCAASGSTFDTNAMGWYRQPPGKERELVASISSAGSTNYADSVKGRFTISRDNAKNTVYLQMNSLKPEDTAVYYCAKYYGQFYPTTLGYWGQGTQVTVSS,low polyreactivity

row,Sequence,polyreactivity (PSR sort gate)
1,QVQLEESGGVLVQAGGSLRLSCAASGSNFYLYAMGWYRQAPGKERELVAGITRSGGRTYYADSVKGRFTISRDNAKNTVYLQMNSLKPEDTAVYYCAAYLVVRIRYTQRYDYWGQGTQVTVSS,low polyreactivity
2,QVQLVESVGGLVQAGGSLRLSCAASALAMGWYRHAPGKERELVAVITSDGRTYYADSVKGRFTISRDNAKNTVYLQMNSLKPEDTAVYYCARDSRTIRYYAWFYPFRYDYWGQGTQVTVSS,low polyreactivity
3,QVQLVESGGGLVQAGGSLRLSCAASGSIFAYYAMGWYRQAPGKERELVAAISRRGGSTYYADSVKGRFTISRDNAKNTVYLQMNSLKPEDTAVYYCAARRSTQYKTGVDSWGQGTQVTVSS,high polyreactivity
4,QVQLVESGGGLVQAGGSLRLSCAASGRILLYKAMGWYRQAPGKERELVAAISRSGGSTYYADSVKGRFTISRDNAKNTVYLQMNSLKPEDTAVYYCAAQHGYPRYYFWGQGTQVTVSS,high polyreactivity
5,QVHLVESGGGLVQAGGSLRLSCAASGRTFVPYVMGWYRQAPGKERELVATINWSGGSTYYADSVKGLFTISRDNAKNTVYLQMNSLKPEDTAVYYCAARYYSDWFYYLFRYDYLGQGTQVTVSS,low polyreactivity
6,QVQLVESGGGLVQAGGSLRLSCAASGRTFYTNAMGCYRQAPGKERELVARIRRGGTTNYADSVKGRFTISRDNAKNTVYLQMNSLKPEDTAVYYCSYSYGYWGQGTQVTVSS,high polyreactivity
7,QVQLVESGGGLVQAGGSLRLSCAASGRTFYGYAMGWYRQAPGKERELVAAISFSGGRTYYADSVKGRFTISRDNAKNTVYLQMNSLKPEDTAVYYCAAVPRGWFSYPSGYDYWGQGTQVTVSS,high polyreactivity
8,QVQLVESGGGLVQAGGSLRLSSAASGFIFAIYSMGWYRQAPGKERELVAAISRSGGRTYYADSVKGRFTISRDIAKNTVYLQMISLKPEDTAVYYCNARFQYRGVKYYYWGKGTQVTVSS,high polyreactivity
9,QGQLVESGGGLVQAGGSLRLSCAASGSIFPYYAMGWYRQAHGKERELVAVITTSGGRTYYADSVKGRFTISRDNAKNTVYLQMNSLKPADTAVYYCATDVRQGSGWRYYYWGQGTQVTVSS,high polyreactivity
10,QVQLVESGGGLVQAGGSLRLICAASGSTFKRYAMGWYRPAPGNERELVAAISSTGGSTFYADSVKGRFTISRDIAKYTVYLQMNSLKREDTAVYYCKKYRATNSARDYWGQGTQVTVSS,high polyreactivity
11,QVQLVESGGGLVQAGGRLRLSCAASGRTFAVYDMGWYIQAPGKERELVAAITYGGGRTYYADSVKGRFTISRDYAKNTVYLQMISLKPEDTSVYYCAADYYGTDYDYWGQGTQVTVSS,low polyreactivity
12,QVQLVESGGGLVQAGGSLRLSCAASGGTFPRYAMGWYRQAPGKERELVAAINQSGGRTYYADSVKGRFTISRDNAKNTVYLQMNSLKPEDTADYYCAAGYGWRTSYLSYGYWGQGTQVTVSS,high polyreactivity
13,QVQLVESGGGLVQAGGSLRLSCAASGSIFSYNALGWYRQAPGKEREFVAAISARGGSTYYADSVKGRFTISRDNAKNTVYLLMNSLKPEDTAVYYCAASWGLGTYSDSTYWGGYYYWGQGTQVTVSS,low polyreactivity
14,QVQLVESGGGLVQAGGSLRLSCAASGSTFSFYAMGWYRQAPGKERELVAAISSRGGSTYYADSVKGRFTISRDNAKNTVYLQMNSLKPEDTAVYYCAVRRYPHFYHRGGFNFNGYDYWGQGTQVTVSS,high polyreactivity
15,QVQLVESAGGLVQAGGSLRLSCAASGSTFSYNAMGWYRQAPGKEREFVAAISSRGGNTFYADSVKGRFTISRDNAKNTVYLQMNSLKPEDTAVYYCAARFNRPYDYWGQGTQVTVSS,low polyreactivity
16,QVQLVESGGGLVQAGGSLRLSCAASGYTFWQYAMGWYRQAPGKERELVAAISGSGGRTYYADSVKGRFTISRDNAKNPVYLQMHSLKPEDTAVYYCAVGYRTPYLSRGGYWGQGTQVTVSS,high polyreactivity
17,QVQLVESGGGLVHAGGSLRLSCAASGSTFGDNAMRLYRQAPGKERELVAVISTAGSTYYADSVKGRFTISRDNAKNTVYLQMNSLKPEDTAVYYCAAAYYVWLYGFWYRRYDYWGQGTQVTVSS,low polyreactivity
18,QVQLVESGGGIVQAGGSLRLSCAGSGIIFWYYAMGWYRQAPGKERELVAAISQSGGRTYYADSVKGRFTISRDNAKNTVYLQMNSLKPEDTAVYYCAAGLVYRWSTTPRRLYYYWGQGTQVTVSS,high polyreactivity
19,QVQLVESGGGLVQAGGSLRLSCAASGFTFHYNAMGWYRQAPGKERELVAAITSGGSTYYADSVKGRFTISRDNAKNTVYLQMNSLKPEDTAVYYCNKLYYRYHHNYDYWGQGTQVTVSS,high polyreactivity
20,QLQLQESSGGLVQAGGSMRMTCAASGTIFHFHIMGWYRPAPGKEREFVAAISYGTSTYYADSVKGRFTISRDNAKNTVYLQMNSQKPEDTAVYYCAVYDYLEVYCWYWGQGTQVTVSS,low polyreactivity
21,QVQLVESGGGLVQAGGSLRLSCAASGLIFAGYTMGWYRQAPGKERELVAAISISGGSTYYADSVKGRFTISRDNAKNTVYLQMNSLKPEDTAVYYCASKRRSWPPTYYYWGQGTQVTVSS,high polyreactivity
